Measurements: patent US20230212319A1, “NOVEL ANTIGEN BINDING DOMAINS AND SYNTHETIC ANTIGEN RECEPTORS INCORPORATING THE SAME” (University of Southern California, priority 2020, published 2023)

Key:
Type in all cases: cell-based
L363 cells = experiment: JNG assay, co-culture with L363 cells; conditions: co-culture with L363
Method in brief: (§1)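 Read-out is NFAT-driven GFP measured by flow cytometry after ~4–18 h co-culture of SAR-expressing JNG cells with target cells (E:T about 1:2). SARs were introduced by lentiviral spinfection and selected with puromycin or blasticidin when possible; scores (+/- to 5+ ≈ 5–50% GFP+) are relative to parental JNG cells.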

U266 cells = experiment: JNG NFAT-GFP induction on co-culture with U266
RS;411 = experiment: JNG assay, co-culture with RS;411 cells; conditions: co-culture with RS411
Method in brief: as §1

RAJI-CD19-KO cells = experiment: JNG assay, co-culture with RAJI-CD19-KO cells; conditions: co-culture with Raji-CD19-KO
Method in brief: as §1

Nalm6 cells = experiment: JNG assay, co-culture with Nalm6 cells; conditions: co-culture with Nalm6
Method in brief: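 NFAT-driven GFP in stably SAR-transduced Jurkat cells after coculture (E:T ~1:2; ~4–18 h), measured by flow cytometry and expressed as % GFP+ cells over parental Jurkat-NFAT-GFP cells.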

RAJI cells = experiment: JNG assay, co-culture with RAJI cells; conditions: JNG cells expressing construct, co-culture with Raji
Method in brief: as §1

Molecule | NFAT-GFP ASSAY: L363 (L363 cells) | NFAT-GFP ASSAY: U266 (U266 cells) | NFAT-GFP ASSAY: RS411 (RS;411) | NFAT-GFP ASSAY: Raji-CD19-KO (RAJI-CD19-KO cells) | NFAT-GFP ASSAY: Nalm6 (Nalm6 cells) | NFAT-GFP ASSAY: Raji (RAJI cells)
22135 (protein) MALPVTALLLPLALLLHAARPACEVQLLESGGGLIQPGGSLRLSCAASGFTFSSHAMTWVRQAPGKGLEWVSAISGSGDYTHYADSVKGRFTISRDNSKNTVYLQMNSLRAEDSAVYYCAKDEDGGSLLGHRGQGTLVTVSSGTGGGGSGGGGSGGGGSEFDIQMTQSPSSLSASVGDRVTITCKASDHINNWLAWYQQKPGQAPKLLIYGATTLETGVPSRFSGSGSGTDYTLTISSLQPEDFATYYCQQSWNTPWTFGQGTKLEIKRLEDLKNVFPPEVAVFEPSEAEISHTQKATLVCLATGFYPDHVELSWWVNGKEVHSGVCTDPQPLKEQPALNDSRYCLSSRLRVSATFWQNPRNHFRCQVQFYGLSENDEWTQDRAKPVTQIVSAEAWGRADCGFTSESYQQGVLSATILYEILLGKATLYAVLVSALVLMAMVKRKDSRGRAKRSGSGATNFSLLKQAGDVEENPGPTSATMDWIWRILFLVGAATGAHSGPEVQLVESGGGLVQAGGSLRLSCAASGRTFSMGWFRQAPGKEREFVAAITYSGGSPYYADSVKGRFTISRDNAKNTVYLQMNSLKPEDTAVYYCAANPTYGSDWNAENWGQGTQVTVSSGSGGGGSGGGGSGGGGSFEQVQLQQPGAELVKPGASVKMSCKASGYAFSSYWINWMKQKPGQGLEWIGQIYPGDGDTNYNGKFKGRATLTADTSSSTAYMQLSSLTSEDSAVYFCARSITTVVGCAMDYWGQGTSVTVSSTRIQNPDPAVYQLRDSKSSDKSVCLFTDFDSQTNVSQSKDSDVYITDKCVLDMRSMDFKSNSAVAWSNKSDFACANAFNNSIIPEDTFFPSPESSCDVKLVEKSFETDTNLNFQNLSVIGFRILLLKVAGFNLLMTLRLWSSRAKRSGSGVKQTLNFDLLKLAGDVESNPGPSRGHMTEYKPTVRLATRDDVPRAVRTLAAAFADYPATRHTVDPDRHIERVTELQELFLTRVGLDIGKVWVADDGAAVAVWTTPESVEAGAVFAEIGPRMAELSGSRLAAQQQMEGLLAPHRPKEPAWFLATVGVSPDHQGKGLGSAVVLPGVEAAERAGVPAFLETSAPRNLPFYERLGFTVTADVEVPEGPRTWCMTRKPGA | 2+ (refer to approximately 5%, 10%, 20%, 30%, 40% and 50% GFP positive cells) | 3+ (refer to approximately 5%, 10%, 20%, 30%, 40% and 50% GFP positive cells) | 2+ (refer to approximately 5%, 10%, 20%, 30%, 40% and 50% GFP positive cells) |  |  | 
22217 (protein) MALPVTALLLPLALLLHAARPACEVQLLESGGGLIQPGGSLRLSCAASGFTFSSHAMTWVRQAPGKGLEWVSAISGSGDYTHYADSVKGRFTISRDNSKNTVYLQMNSLRAEDSAVYYCAKDEDGGSLLGHRGQGTLVTVSSGTGAVVRGAEFDIQMTQSPSSLSASVGDRVTITCKASDHINNWLAWYQQKPGQAPKLLIYGATTLETGVPSRFSGSGSGTDYTLTISSLQPEDFATYYCQQSWNTPWTFGQGTKLEIKRLEDLKNVFPPEVAVFEPSKAEIAHTQKATLVCLATGFYPDHVELSWWVNGKEVHSGVCTDPQPLKEQPALNDSRYCLSSRLRVSATFWQNPRNHFRCQVQFYGLSENDEWTQDRAKPVTQIVSAEAWGRADCGITSASYHQGVLSATILYEILLGKATLYAVLVSALVLMAMVKRKDSRGRAKRSGSGATNFSLLKQAGDVEENPGPTSATMDWIWRILFLVGAATGAHSGPEVQLVESGGGLVQAGGSLRLSCAASGRTFSMGWFRQAPGKEREFVAAITYSGGSPYYADSVKGRFTISRDNAKNTVYLQMNSLKPEDTAVYYCAANPTYGSDWNAENWGQGTQVTVSSGSGGGGSGGGGSGGGGSFEQVQLQQPGAELVKPGASVKMSCKASGYAFSSYWINWMKQKPGQGLEWIGQIYPGDGDTNYNGKFKGRATLTADTSSSTAYMQLSSLTSEDSAVYFCARSITTVVGCAMDYWGQGTSVTVSSTRIQNPDPAVYQLRDSKSSDKSVCLFTDFDSQTNVSQSKDSDVYITDKCVLDMRSMDFKSNSAVAWSNKSDFACANAFNNSIIPEDTFFPSPESSCDVKLVEKSFETDTNLNFQNLSVIGFRILLLKVAGFNLLMTLRLWSSRAKRSGSGVKQTLNFDLLKLAGDVESNPGPSRGHMTEYKPTVRLATRDDVPRAVRTLAAAFADYPATRHTVDPDRHIERVTELQELFLTRVGLDIGKVWVADDGAAVAVWTTPESVEAGAVFAEIGPRMAELSGSRLAAQQQMEGLLAPHRPKEPAWFLATVGVSPDHQGKGLGSAVVLPGVEAAERAGVPAFLETSAPRNLPFYERLGFTVTADVEVPEGPRTWCMTRKPGA | 3+ (refer to approximately 5%, 10%, 20%, 30%, 40% and 50% GFP positive cells) | 4+ (refer to approximately 5%, 10%, 20%, 30%, 40% and 50% GFP positive cells) |  | 3+ (refer to approximately 5%, 10%, 20%, 30%, 40% and 50% GFP positive cells) | 4+ (refer to approximately 5%, 10%, 20%, 30%, 40% and 50% GFP positive cells) | + (refer to approximately 5%, 10%, 20%, 30%, 40% and 50% GFP positive cells)
22220 (protein) MALPVTALLLPLALLLHAARPACEVQLLESGGGLIQPGGSLRLSCAASGFTFSSHAMTWVRQAPGKGLEWVSAISGSGDYTHYADSVKGRFTISRDNSKNTVYLQMNSLRAEDSAVYYCAKDEDGGSLLGHRGQGTLVTVSSGTGAIGFLRTAEFDIQMTQSPSSLSASVGDRVTITCKASDHINNWLAWYQQKPGQAPKLLIYGATTLETGVPSRFSGSGSGTDYTLTISSLQPEDFATYYCQQSWNTPWTFGQGTKLEIKRLEDLKNVFPPEVAVFEPSKAEIAHTQKATLVCLATGFYPDHVELSWWVNGKEVHSGVCTDPQPLKEQPALNDSRYCLSSRLRVSATFWQNPRNHFRCQVQFYGLSENDEWTQDRAKPVTQIVSAEAWGRADCGITSASYHQGVLSATILYEILLGKATLYAVLVSALVLMAMVKRKDSRGRAKRSGSGATNFSLLKQAGDVEENPGPTSATMDWIWRILFLVGAATGAHSGPEVQLVESGGGLVQAGGSLRLSCAASGRTFSMGWFRQAPGKEREFVAAITYSGGSPYYADSVKGRFTISRDNAKNTVYLQMNSLKPEDTAVYYCAANPTYGSDWNAENWGQGTQVTVSSGSGGGGSGGGGSGGGGSFEQVQLQQPGAELVKPGASVKMSCKASGYAFSSYWINWMKQKPGQGLEWIGQIYPGDGDTNYNGKFKGRATLTADTSSSTAYMQLSSLTSEDSAVYFCARSITTVVGCAMDYWGQGTSVTVSSTRIQNPDPAVYQLRDSKSSDKSVCLFTDFDSQTNVSQSKDSDVYITDKCVLDMRSMDFKSNSAVAWSNKSDFACANAFNNSIIPEDTFFPSPESSCDVKLVEKSFETDTNLNFQNLSVIGFRILLLKVAGFNLLMTLRLWSSRAKRSGSGVKQTLNFDLLKLAGDVESNPGPSRGHMTEYKPTVRLATRDDVPRAVRTLAAAFADYPATRHTVDPDRHIERVTELQELFLTRVGLDIGKVWVADDGAAVAVWTTPESVEAGAVFAEIGPRMAELSGSRLAAQQQMEGLLAPHRPKEPAWFLATVGVSPDHQGKGLGSAVVLPGVEAAERAGVPAFLETSAPRNLPFYERLGFTVTADVEVPEGPRTWCMTRKPGA | +/- (refer to approximately 5%, 10%, 20%, 30%, 40% and 50% GFP positive cells) | + (refer to approximately 5%, 10%, 20%, 30%, 40% and 50% GFP positive cells) |  | + (refer to approximately 5%, 10%, 20%, 30%, 40% and 50% GFP positive cells) | +/- (refer to approximately 5%, 10%, 20%, 30%, 40% and 50% GFP positive cells) | 
22245 (protein) MALPVTALLLPLALLLHAARPACEVQLLESGGGLIQPGGSLRLSCAASGFTFSSHAMTWVRQAPGKGLEWVSAISGSGDYTHYADSVKGRFTISRDNSKNTVYLQMNSLRAEDSAVYYCAKDEDGGSLLGHRGQGTLVTVSSGTGAIGFLRTAEFDIQMTQSPSSLSASVGDRVTITCKASDHINNWLAWYQQKPGQAPKLLIYGATTLETGVPSRFSGSGSGTDYTLTISSLQPEDFATYYCQQSWNTPWTFGQGTKLEIKRLEDLKNVFPPEVAVFEPSKAEIAHTQKATLVCLATGFYPDHVELSWWVNGKEVHSGVCTDPQPLKEQPALNDSRYCLSSRLRVSATFWQNPRNHFRCQVQFYGLSENDEWTQDRAKPVTQIVSAEAWGRADCGITSASYHQGVLSATILYEILLGKATLYAVLVSALVLMAMVKRKDSRGRAKRSGSGATNFSLLKQAGDVEENPGPTSATMDWIWRILFLVGAATGAHSGPEVQLVESGGGLVQAGGSLRLSCAASGRTFSMGWFRQAPGKEREFVAAITYSGGSPYYADSVKGRFTISRDNAKNTVYLQMNSLKPEDTAVYYCAANPTYGSDWNAENWGQGTQVTVSSGSGGGGSGGGGSGGGGSFEQVQLQQPGAELVKPGASVKMSCKASGYAFSSYWINWMKQKPGQGLEWIGQIYPGDGDTNYNGKFKGRATLTADTSSSTAYMQLSSLTSEDSAVYFCARSITTVVGCAMDYWGQGTSVTVSSTRIQNPDPAVYQLRDSKSSDKSVCLFTDFDSQTNVSQSKDSDVYITDKCVLDMRSMDFKSNSAVAWSNKSDFACANAFNNSIIPEDTFFPSPESSCDVKLVEKSFETDTNLNFQNLSVIGFRILLLKVAGFNLLMTLRLWSSRAKRSGSGVKQTLNFDLLKLAGDVESNPGPSRGHMTEYKPTVRLATRDDVPRAVRTLAAAFADYPATRHTVDPDRHIERVTELQELFLTRVGLDIGKVWVADDGAAVAVWTTPESVEAGAVFAEIGPRMAELSGSRLAAQQQMEGLLAPHRPKEPAWFLATVGVSPDHQGKGLGSAVVLPGVEAAERAGVPAFLETSAPRNLPFYERLGFTVTADVEVPEGPRTWCMTRKPGA | +/- (refer to approximately 5%, 10%, 20%, 30%, 40% and 50% GFP positive cells) | + (refer to approximately 5%, 10%, 20%, 30%, 40% and 50% GFP positive cells) |  | + (refer to approximately 5%, 10%, 20%, 30%, 40% and 50% GFP positive cells) | +/- (refer to approximately 5%, 10%, 20%, 30%, 40% and 50% GFP positive cells) | 
